Results from US20250276075A1, “METHODS OF TREATING AXL-EXPRESSING CANCERS WITH ANTI-AXL ANTIBODIES, ANTIBODY FRAGMENTS AND THEIR IMMUNOCONJUGATES” (BIOATLA, INC., priority 2020, published 2025).
Numbering of substitutions follows the chain as printed. Names may count otherwise.

T1: Axl (Homo sapiens, UniProt P30530)
T1 sequence (P30530 26-451 limits assumed): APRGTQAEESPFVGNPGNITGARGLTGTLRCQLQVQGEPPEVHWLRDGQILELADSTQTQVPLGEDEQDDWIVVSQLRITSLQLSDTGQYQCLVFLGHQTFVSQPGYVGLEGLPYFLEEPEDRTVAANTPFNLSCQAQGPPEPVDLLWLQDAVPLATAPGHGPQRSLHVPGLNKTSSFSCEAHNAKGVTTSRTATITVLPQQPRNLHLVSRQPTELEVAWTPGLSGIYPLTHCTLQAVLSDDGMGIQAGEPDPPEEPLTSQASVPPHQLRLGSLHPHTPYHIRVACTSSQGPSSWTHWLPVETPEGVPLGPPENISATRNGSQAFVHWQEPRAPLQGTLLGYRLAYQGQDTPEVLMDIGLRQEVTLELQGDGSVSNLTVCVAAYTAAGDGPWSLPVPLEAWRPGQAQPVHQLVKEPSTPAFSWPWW

B1: HC-T030A (antibody, V domains shown)
VH: EVQLVQSGAEVKKPGATVKISCKVSGYSFAGHTMNWIRQPPGKGLEWIGLIKPSNGGTSYNQKFKGRVTISADKSISTAYLQWSSLKASDTAMYYCAHGHYESYFAMDYWGQGTLVTVSS
VL: DIQMTQSPSSLSASVGDRVTITCKASQDVSSAVAWYQQKPGQAPRLLIYWASTRHTGVPSRFSGSGSGTEFTLTISSLQPDDFATYYCQEHFSTPLTFGQGTKVEIK
B2: LC-H091T (antibody, V domains shown)
VH: B1 VH with A30T
VL: B1 VL with H91T
B3: LC-H091V (antibody, V domains shown)
VH: B1 VH with A30T
VL: B1 VL with H91V
B4: LC-A034N (antibody, V domains shown)
VH: B1 VH with A30T
VL: B1 VL with A34N
B5: LC-F092C (antibody, V domains shown)
VH: B1 VH with A30T
VL: B1 VL with F92C
B6: LC-H091S (antibody, V domains shown)
VH: B1 VH with A30T
VL: B1 VL with H91S
B7: LC-A032L (antibody, V domains shown)
VH: B1 VH with A30T
VL: B1 VL with A32L
B8: LC-A032M (antibody, V domains shown)
VH: B1 VH with A30T
VL: B1 VL with A32M
B9: LC-A034D (antibody, V domains shown)
VH: B1 VH with A30T
VL: B1 VL with A34D
B10: LC-V029G (antibody, V domains shown)
VH: B1 VH with A30T
VL: B1 VL with V29G
B11: LC-V029W (antibody, V domains shown)
VH: B1 VH with A30T
VL: B1 VL with V29W
B12: HC-W110H (antibody, V domains shown)
VH: B1 VH with A30T, W110H
VL: B1 VL
B13: HC-N035I (antibody, V domains shown)
VH: B1 VH with A30T, N35I
VL: B1 VL
B14: LC-V029N (antibody, V domains shown)
VH: B1 VH with A30T
VL: B1 VL with V29N
B15: LC-F092D (antibody, V domains shown)
VH: B1 VH with A30T
VL: B1 VL with F92D
B16: LC-F092E (antibody, V domains shown)
VH: B1 VH with A30T
VL: B1 VL with F92E
B17: HC-E102N (antibody, V domains shown)
VH: B1 VH with A30T, E102N
VL: B1 VL
B18: LC-V029D (antibody, V domains shown)
VH: B1 VH with A30T
VL: B1 VL with V29D
B19: LC-H091Y (antibody, V domains shown)
VH: B1 VH with A30T
VL: B1 VL with H91Y
B20: LC-F092G (antibody, V domains shown)
VH: B1 VH with A30T
VL: B1 VL with F92G
B21: LC-A034Q (antibody, V domains shown)
VH: B1 VH with A30T
VL: B1 VL with A34Q

target: Axl (UniProt P30530); assay: ELISA, 1:9 dilution; conditions: not given

Molecule	Affinity ELISA CPE mutant ratio (1:9, pH 6.0/7.4)
B1	1.76
B2	3.78
B3	1.17
B4	2.4
B5	4.58
B6	1.34
B7	2.27
B8	2.92
B9	2.6
B10	1.8
B11	2.35
B12	0.932
B13	1.12
B14	2.65
B15	2.94
B16	2
B17	1.57
B18	2.68
B19	5.13
B20	4.76
B21	1.41

target: T1, Axl; assay: Affinity ELISA of CPE mutant antibodies for binding to Axl at pH 6.0 over pH 7.4; conditions: heavy chain variable region mutants; 1:3 dilution
Description: The DNA encoding the wild-type antibody was evolved to generate a mutant antibody library using Comprehensive Positional Evolution (CPE), which each position in the template antibody is randomized one at a time. Each mutant antibody in the library has only one single point mutation. The mutant antibodies in the library were generated by simultaneously screening for selective binding affinity to Axl at pH 6.0 over pH 7.4 by ELISA. Two mutant antibody dilutions were used: 1:3 and 1:9 dilutions. The mutant antibodies that have at least 1.5 ratio of binding affinity at pH 6.0 to at pH 7.4 under either 1:3 or 1:9 dilution are selected as conditionally active antibodies, with the single point mutations indicated in each of the heavy chain and light chain variable region (Tables 1 and 2).
A wild-type antibody to Axl was selected as the template antibody (with a heavy chain variable region of 063-hum10F10-HC in FIG. 1A and a light chain variable region of […]). The DNA encoding the wild-type antibody was evolved to generate a mutant antibody library using Comprehensive Positional Evolution (CPE), a method by which each position in the template antibody is randomized one at a time. Each mutant antibody in the library has only one single point mutation. The mutant antibodies in the library were generated by simultaneously screening for selective binding affinity to Axl at pH 6.0 over pH 7.4 as determined by ELISA.
Simultaneously, the expression level of the mutant antibodies was also optimized for the purpose of higher fields in a manufacturing process. The screening was done in serum using a FLAG tag because there were human antibodies in the serum which might cause false positives for the screening. The screening buffer was a carbonate buffer (Krebs buffer with ringer-standard buffer but different from PBS). […] Some of the selected mutant antibodies (scFv) were represented in FIG. 2 with their higher activity at pH 6.0 than at pH 7.4, while their activity ratios between pH 6.0 to pH 7.4 were at least 11 fold (FIG. 3).

Molecule	Affinity ELISA CPE mutant ratio (1:3, pH 6.0/7.4)
B1	1.292
B12	7.993
B13	2.814
B17	1.520

same assay, conditions: heavy chain variable region mutants; 1:9 dilution

Molecule	Affinity ELISA CPE mutant ratio (1:9, pH 6.0/7.4)
B1	1.762
B12	0.932
B13	1.121
B17	1.567

same assay, conditions: light chain variable region mutants; 1:3 dilution

Molecule	Affinity ELISA CPE mutant ratio (1:3, pH 6.0/7.4)
B2	3.779
B3	4.133
B4	2.626
B5	3.862
B6	1.758
B7	1.982
B8	4.757
B9	3.005
B10	1.939
B11	2.310
B14	2.595
B15	2.969
B16	1.759
B18	2.882
B19	3.931
B20	3.692
B21	1.999

same assay, conditions: light chain variable region mutants; 1:9 dilution

Molecule	Affinity ELISA CPE mutant ratio (1:9, pH 6.0/7.4)
B2	3.781
B3	1.171
B4	2.403
B5	4.576
B6	1.336
B7	2.272
B8	2.920
B9	2.599
B10	1.803
B11	2.353
B14	2.652
B15	2.940
B16	1.999
B18	2.679
B19	5.126
B20	4.758
B21	1.409

target: Axl (UniProt P30530); assay: ELISA, 1:3 dilution; conditions: not given

Molecule	Affinity ELISA CPE mutant ratio (1:3, pH 6.0/7.4)
B1	1.29
B2	3.78
B3	4.13
B4	2.63
B5	3.86
B6	1.76
B7	1.98
B8	4.76
B9	3
B10	1.94
B11	2.31
B12	7.99
B13	2.81
B14	2.6
B15	2.97
B16	1.76
B17	1.52
B18	2.88
B19	3.93
B20	3.69
B21	2
